Test [1] has as its target T1, Fc-hROR1(d2d3) (human, UniProt Q01973 161-406, limits assumed).
T1 construct: domain: d2-Frizzled and d3-Kringle; Order from the name; not shown: human Fc region
Nature of the test: ELISA, coated domain construct.

The target of test [2] is T2, Fc-hROR1(d2) (human, UniProt Q01973 161-307, limits assumed).
T2 construct: domain: d2-Frizzled; Order from the name; not shown: human Fc region
The experiment in a line: ELISA, coated domain construct.

Test [3] has as its target T3, Fc-hROR(d3) (human, UniProt Q01973 308-406, limits assumed).
T3 construct: domain: d3-Kringle; Order from the name; not shown: human Fc region
The experiment in a line: ELISA, coated domain construct.

In test [4] the target is T4, human ROR1-ECD (ROR1-derived extracellular domain fragment without Fc) (human, UniProt Q01973 30-406).
T4 construct: extracellular domain; also called hROR1ECD; ROR-ECD
T4 sequence (Q01973 30-406): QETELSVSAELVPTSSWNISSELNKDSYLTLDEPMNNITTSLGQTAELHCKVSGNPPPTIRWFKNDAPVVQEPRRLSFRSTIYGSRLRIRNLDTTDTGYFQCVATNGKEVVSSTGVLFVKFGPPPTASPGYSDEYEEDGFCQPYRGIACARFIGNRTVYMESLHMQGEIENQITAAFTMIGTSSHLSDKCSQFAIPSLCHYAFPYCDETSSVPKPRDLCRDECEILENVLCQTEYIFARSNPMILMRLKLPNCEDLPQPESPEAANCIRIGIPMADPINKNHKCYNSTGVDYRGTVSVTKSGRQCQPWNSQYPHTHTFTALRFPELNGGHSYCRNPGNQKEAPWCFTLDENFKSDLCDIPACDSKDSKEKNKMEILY
The experiment in a line: SPR (BIACORE X100), ROR1-ECD coupled to CM5 chip, bivalent IgG injected, 1:1 Langmuir model.

T1 sequence (Q01973 161-406 limits assumed): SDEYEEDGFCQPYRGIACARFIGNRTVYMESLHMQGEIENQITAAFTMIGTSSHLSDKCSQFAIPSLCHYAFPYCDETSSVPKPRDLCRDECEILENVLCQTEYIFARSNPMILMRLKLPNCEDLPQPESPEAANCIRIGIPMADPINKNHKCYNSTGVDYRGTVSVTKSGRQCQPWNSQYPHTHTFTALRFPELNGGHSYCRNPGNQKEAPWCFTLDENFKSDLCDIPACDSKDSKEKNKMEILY
T2 sequence (Q01973 161-307 limits assumed): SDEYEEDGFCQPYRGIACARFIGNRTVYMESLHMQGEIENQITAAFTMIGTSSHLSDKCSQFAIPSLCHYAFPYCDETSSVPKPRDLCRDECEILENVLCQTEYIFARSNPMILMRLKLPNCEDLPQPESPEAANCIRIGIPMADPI
T3 sequence (Q01973 308-406 limits assumed): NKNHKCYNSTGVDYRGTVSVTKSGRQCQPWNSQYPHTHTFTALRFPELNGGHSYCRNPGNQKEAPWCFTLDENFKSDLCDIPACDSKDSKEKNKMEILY

B1: mouse monoclonal antibody (mAb) 2A2 (antibody, mouse IgG1, V domains shown)
VH: QVQLQQSGAELVRPGASVTLSCKASGYTFSDYEMHWVIQTPVHGLEWIGAIDPETGGTAYNQKFKGKAILTADKSSSTAYMELRSLTSEDSAVYYCTGYYDYDSFTYWGQGTLVTVSA
VL: DIVMTQSQKIMSTTVGDRVSITCKASQNVDAAVAWYQQKPGQSPKLLIYSASNRYTGVPDRFTGSGSGTDFTLTISNMQSEDLADYFCQQYDIYPYTFGGGTKLEIK
notes: also called mouse mAb 2A2
B1: the binding result in test [1], in test [2] and in test [3] was “no binding” each time. This molecule came in with a Kd in test [4] of 0.1 nM.

The values above are taken from patent US20120058051A1 (US Dept. of Health and Human Services, published 2012).
